What was measured:
H-Gln-Glu-OH = target: T1, H-Gln-Glu-OH
T1 chain: QE

H-Gln-Tyr-OH = target: T2, H-Gln-Tyr-OH
T2 chain: QY

[1] = target: T3, H-βhomoGln-Phe-Lys-Arg-Leu-Ala-NH2
T3 chain: QFKRLA

H-Gln-Gly-OH = target: T4, H-Gln-Gly-OH
T4 chain: QG

H-Gln-Glu-Ala-Phe-NH2 = target: T5, H-Gln-Glu-Ala-Phe-NH2
T5 chain: QEAF

H-Gln-Gly-Pro-OH = target: T6, H-Gln-Gly-Pro-OH
T6 chain: QGP

H-Gln-Gln-Tyr-Phe-NH2 = target: T7, H-Gln-Gln-Tyr-Phe-NH2
T7 chain: QQYF

[2] = target: T8, H-Gln-Ala-Ala-Ser-Ala-Ala-NH2
T8 chain: QAASAA

H-Gln-His-Tyr-Phe-NH2 = target: T9, H-Gln-His-Tyr-Phe-NH2
T9 chain: QHYF

H-Gln-Ala-OH = target: T10, H-Gln-Ala-OH
T10 chain: QA

H-Gln-Trp-Ala-NH2 = target: T11, H-Gln-Trp-Ala-NH2
T11 chain: QWA

[3] = target: T12, H-Gln-cyclo(Nε-Lys-Arg-Pro-Ala-Gly-Phe)
T12 chain: QKRPAGF

Gln^3-Aβ(3-11)a = target: T13, Gln^3-Aβ(3-11)a
T13 chain: QFRHDSGYE

H-Gln-Glu-Ala-Ala-NH2 = target: T14, H-Gln-Glu-Ala-Ala-NH2
T14 chain: QEAA

[4] = target: T15, [Gln^5]-substance P(5-11)
T15 chain: QQFFGLM

H-Gln-Asn-Gly-Ile-NH2 = target: T16, H-Gln-Asn-Gly-Ile-NH2
T16 chain: QNGI

H-Gln-Phe-Ala-NH2 = target: T17, H-Gln-Phe-Ala-NH2
T17 chain: QFA

H-Gln-Glu-Tyr-Phe-NH2 = target: T18, H-Gln-Glu-Tyr-Phe-NH2
T18 chain: QEYF

H-Gln-Pro-Tyr-Phe-NH2 = target: T19, H-Gln-Pro-Tyr-Phe-NH2
T19 chain: QPYF

H-Gln-Val-OH = target: T20, H-Gln-Val-OH
T20 chain: QV

H-Gln-Glu-Tyr-NH2 = target: T21, H-Gln-Glu-Tyr-NH2
T21 chain: QEY

H-Gln-Glu-Asp-Leu-NH2 = target: T22, H-Gln-Glu-Asp-Leu-NH2
T22 chain: QEDL

H-Gln-Arg-Gly-Ile-NH2 = target: T23, H-Gln-Arg-Gly-Ile-NH2
T23 chain: QRGI

H-Gln-Glu-Tyr-Ala-NH2 = target: T24, H-Gln-Glu-Tyr-Ala-NH2
T24 chain: QEYA

[5] = target: T25, H-Gln-Ala-Ala-Ala-Ala-NH2
T25 chain: QAAAA

H-Gln-Lys-Arg-Leu-NH2 = target: T26, H-Gln-Lys-Arg-Leu-NH2
T26 chain: QKRL

H-Gln-Tyr-Ala-OH = target: T27, H-Gln-Tyr-Ala-OH
T27 chain: QYA

H-Gln-Ala-NH2 = target: T28, H-Gln-Ala-NH2
T28 chain: QA

H-Gln-Arg-Tyr-Phe-NH2 = target: T29, H-Gln-Arg-Tyr-Phe-NH2
T29 chain: QRYF

[Gln^1]-GnRH = target: T30, [Gln^1]-GnRH
T30 chain: QHWSYGLRPG

H-Gln-Ser-Tyr-Phe-NH2 = target: T31, H-Gln-Ser-Tyr-Phe-NH2
T31 chain: QSYF

H-Gln-Gln-OH = target: T32, H-Gln-Gln-OH
T32 chain: QQ

B1: recombinant human glutaminyl cyclase (QC, EC 2.3.2.5) (protein)
chain: VSPSASAWPEEKNYHQPAILNSSALRQIAEGTSISEMWQNDLQPLLIERYPGSPGSYAARQHIMQRIQRLQADWVLEIDTFLSQTPYGYRSFSNIISTLNPTAKRHLVLACHYDSKYFSHWNNRVFVGATDSAVPCAMMLELARALDKKLLSLKTVSDSKPDLSLQLIFFDGEEAFLHWSPQDSLYGSRHLAAKMASTPHPPGARGTSQLHGMDLLVLLDLIGAPNPTFPNFFPNSARWFERLQAIEHELHELGLLKDHSLEGRYFQNYSYGGVIQDDHIPFLRRGVPVLHLIPSPFPEVWHTMDDNEENLDESTIDNLNKILQVFVLEYLHL
KM (0.05 M Tris-HCl, pH 8.0) (H-Gln-Glu-OH): 0.373 mM | KM (0.05 M Tris-HCl, pH 8.0, 0.5 M KCl) (H-Gln-Glu-OH): 0.607 mM | KM (substrate conversion by QC) (H-Gln-Glu-OH): 359 µM | KM (substrate conversion by QC) (H-Gln-Tyr-OH): 211 µM | KM (substrate conversion by QC) [1]: KM=2.5±0.2 mM | KM (substrate conversion by QC) (H-Gln-Gly-OH): 247 µM | KM (substrate conversion by QC) (H-Gln-Glu-Ala-Phe-NH2): 39 µM | KM (substrate conversion by QC) (H-Gln-Gly-Pro-OH): 130 µM | KM (substrate conversion by QC) (H-Gln-Gln-Tyr-Phe-NH2): 41 µM | KM (substrate conversion by QC) [2]: 79 µM | KM (substrate conversion by QC) (H-Gln-His-Tyr-Phe-NH2): 68 µM | KM (0.05 M Tris-HCl, pH 8.0) (H-Gln-Ala-OH): 0.269 mM | KM (0.05 M Tris-HCl, pH 8.0, 0.5 M KCl) (H-Gln-Ala-OH): 0.357 mM | KM (substrate conversion by QC) (H-Gln-Ala-OH): 232 µM | KM (0.05 M Tris-HCl, pH 8.0) (H-Gln-Trp-Ala-NH2): 0.054 mM | KM (0.05 M Tris-HCl, pH 8.0, 0.5 M KCl) (H-Gln-Trp-Ala-NH2): 0.056 mM | KM (substrate conversion by QC) (H-Gln-Trp-Ala-NH2): 50 µM | KM (substrate conversion by QC) [3]: KM-values of 240±14 µM and 133±5 µM for human and papaya QC, respectively | KM (buffer containing 1% DMSO) (Gln^3-Aβ(3-11)a): 155 µM | KM (substrate conversion by QC) (H-Gln-Glu-Ala-Ala-NH2): 77 µM | substrate conversion, determined qualitatively by MALDI-TOF [4]: * | KM (substrate conversion by QC) (H-Gln-Asn-Gly-Ile-NH2): 172 µM | KM (substrate conversion by QC) (H-Gln-Phe-Ala-NH2): 69 µM | KM (substrate conversion by QC) (H-Gln-Glu-Tyr-Phe-NH2): 47 µM | KM (substrate conversion by QC) (H-Gln-Pro-Tyr-Phe-NH2): 1890 µM | KM (substrate conversion by QC) (H-Gln-Val-OH): 196 µM | KM (substrate conversion by QC) (H-Gln-Glu-Tyr-NH2): 79 µM | KM (0.05 M Tris-HCl, pH 8.0) (H-Gln-Glu-Asp-Leu-NH2): 0.06 mM | KM (0.05 M Tris-HCl, pH 8.0, 0.5 M KCl) (H-Gln-Glu-Asp-Leu-NH2): 0.061 mM | KM (substrate conversion by QC) (H-Gln-Glu-Asp-Leu-NH2): 55 µM | KM (0.05 M Tris-HCl, pH 8.0) (H-Gln-Arg-Gly-Ile-NH2): 0.166 mM | KM (0.05 M Tris-HCl, pH 8.0, 0.5 M KCl) (H-Gln-Arg-Gly-Ile-NH2): 0.091 mM | KM (substrate conversion by QC) (H-Gln-Arg-Gly-Ile-NH2): 143 µM | KM (substrate conversion by QC) (H-Gln-Glu-Tyr-Ala-NH2): 69 µM | KM (substrate conversion by QC) [5]: 65 µM | KM (0.05 M Tris-HCl, pH 8.0) (H-Gln-Lys-Arg-Leu-NH2): 0.051 mM | KM (0.05 M Tris-HCl, pH 8.0, 0.5 M KCl) (H-Gln-Lys-Arg-Leu-NH2): 0.034 mM | KM (substrate conversion by QC) (H-Gln-Lys-Arg-Leu-NH2): 54 µM | KM (substrate conversion by QC) (H-Gln-Tyr-Ala-OH): 101 µM | KM (substrate conversion by QC) (H-Gln-Ala-NH2): 155 µM | KM (substrate conversion by QC) (H-Gln-Arg-Tyr-Phe-NH2): 55 µM | KM (substrate conversion by QC) ([Gln^1]-GnRH): 53 µM | KM (substrate conversion by QC) (H-Gln-Ser-Tyr-Phe-NH2): 55 µM | KM (substrate conversion by QC) (H-Gln-Gln-OH): 148 µM

— patent publication US7462599
